Results on one molecule are retold here after US20130323249A1 (published 2013).

By EC50 is commonly meant the concentration giving half of the maximal effect. Lower therefore signals a more potent agent. For orientation: Kd means the constant that tells how readily two partners part at equilibrium. Low values mean a tighter complex, high ones a looser complex. A word on the koff: it is a measure of how fast the partners let go of each other. As usually defined, the kon is the second-order rate constant of association. For orientation: IC50 means the concentration at which inhibition is half-maximal. High values mean lower potency, low ones higher potency.

Experiment [1] deals with T1, human PD-L1 expressed on the surface of cells (human, UniProt Q9NZQ7 19-290).
T1 construct: whole, on cells; also called CHO-PD-L1; PD-L1 on ES-2 ovarian carcinoma cells
T1 sequence (Q9NZQ7 19-290): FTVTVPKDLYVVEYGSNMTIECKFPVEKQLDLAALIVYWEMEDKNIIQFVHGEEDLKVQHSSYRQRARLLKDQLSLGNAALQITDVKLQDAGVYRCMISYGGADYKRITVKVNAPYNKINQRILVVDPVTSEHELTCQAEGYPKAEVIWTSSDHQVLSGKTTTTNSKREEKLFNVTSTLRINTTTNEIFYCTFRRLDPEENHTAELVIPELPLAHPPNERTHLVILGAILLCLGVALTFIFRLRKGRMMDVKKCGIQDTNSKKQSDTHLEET
The experiment can be described thus: flow cytometry (Intellicyt HTFC) on CHO-PD-L1 cells, PE anti-human IgG detection. The procedure:
(§1) After 0.5 hr incubation, cells were washed 1× with FACS Buffer and resuspended in 50 μl PE-conjugated, goat anti-human IgG (γ-chain specific) secondary antibody (Southern Biotech Cat #2040-09). Cells were further incubated for 0.5 hr and then washed 1× with FACS Buffer. Cells were resuspended in 25 μl FACS Buffer and the median fluorescence intensity in the FL2-H channel was determined using the Intellicyt HTFC flow cytometer.
In general terms: Flow cytometry measures light scatter and fluorescence of single cells or particles in a stream.

Another experiment has as its target T2, rhPD-L1 (human, UniProt Q9NZQ7 19-238, limits assumed).
T2 construct: also called recombinant human PD-L1
The experiment can be described thus: Biacore SPR, rhPD-L1 immobilized on CM5 chip, antibody in solution, 1:1 Langmuir fit. As for the experimental part: All measurements were conducted in HBS-EP buffer with a flow rate of 30 μL/min. Antibody was diluted so as to obtain a series of concentrations. A 1:1 (Langmuir) binding model was used to fit the data.
In general terms: In SPR one partner is held on a chip, and binding of the other changes the refractive index at the surface.

A further experiment addresses T3, PD-L1/Fc (human, UniProt Q9NZQ7 19-238, limits assumed).
T3 construct: also called rhPD-L1; not shown: Fc part (detected with anti-human Fc)
Kind of experiment: competition ELISA: G12 IgG pre-mixed with PD-L1/Fc, binding to coated PD1/His detected with anti-human Fc HRP. The procedure: A 96-well ELISA plate was coated with 1 ng/μL PD1/His at 4° C. overnight, then blocked with casein in PBS. […] Transferred 25 μl the mixtures to the ELISA plate and incubated 30 min with shaking. Washed 3 times with PBST. Added HRP conjugated Goat anti-human Fc (1:500 in casein), used TMB as substrate and developed 30 min. 2M H₂SO₄ was added to stop the reaction. Read the OD at 450 nm.
(An ELISA detects its analyte on a solid surface through an enzyme-linked reagent.)

In experiment [2] the target is T1, human PD-L1 expressed on the surface of …. The experiment can be described thus: flow cytometry (Intellicyt HTFC) on ES-2 ovarian carcinoma cells treated with IFNγ for 18 hr, PE anti-human IgG detection. As for the experimental part: as §1
Experiment [3] has the same target. Kind of experiment: flow cytometry competition: CHO-PD-L1 cells pre-incubated with G12, then rhPD-1-Fc, detected with Alexa-Fluor 647 anti-PD-1 antibody. An excerpt: Data points are shown as the median fluorescence detected in the FL-4H channel +/− Std Error.

T2 sequence (Q9NZQ7 19-238 limits assumed): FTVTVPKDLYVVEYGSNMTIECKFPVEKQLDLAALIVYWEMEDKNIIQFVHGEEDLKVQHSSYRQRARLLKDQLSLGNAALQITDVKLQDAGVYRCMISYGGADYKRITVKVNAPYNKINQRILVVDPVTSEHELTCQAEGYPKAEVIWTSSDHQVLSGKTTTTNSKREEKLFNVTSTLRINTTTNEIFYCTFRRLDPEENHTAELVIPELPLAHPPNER
T3 sequence (Q9NZQ7 19-238 limits assumed): as above

B1: G12 anti-PD-L1 antibody (antibody, V domains shown)
VH: EVQLVQSGAEVKKPGASVKVSCKASGYTFTGYYMHWVRQAPGQGLEWMGWINPNSDNTGSAQKFQGRVFMTKTTSLNTAYMELSGLRSEDTAIYYCARERSSGYFDFWGQGTLVTVSS
VL: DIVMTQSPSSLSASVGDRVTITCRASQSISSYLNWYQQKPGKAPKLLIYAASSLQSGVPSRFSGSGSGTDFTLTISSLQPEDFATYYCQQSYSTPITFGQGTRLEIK
notes: Fully human antibody of an IgG class; detected with anti-human IgG gamma-chain specific secondary; also called anti-PD-L1 mAb G12
In turn, B1 registered an EC50 in experiment [1] of 1.71 nM. Also, in the experiment with rhPD-L1, the affinity, expressed as Kd, was 0.0374 nM; the koff was 0.00049 s⁻¹; the on-rate (kon) worked out at 1.31e+07 M⁻¹ s⁻¹. In the experiment with PD-L1/Fc, the IC50 came out at 0.0729 nM. The molecule also displayed an EC50 in experiment [2] of 0.0458 nM. In experiment [3], the IC50 came out at 1.76 nM.
